Earlier results, collected in patent US20230285262A1, “Skin Compositions and Uses” (Stemetrix, Inc., priority 2013, published 2023).

Assays:
[1] = test system: balb/c 3T3 cells
[2] = test system: FDC-P1 cells
[3] = test system: mouse HT-2 cells
[4] = test system: erythropoiesis-stimulating response; conditions: per mg of protein
[5] = commercial preparation judged 98% pure

For “EGF: human epidermal growth factor, commercial preparation judged 98% pure by PAGE and HPLC”, the ED50 [1, 5] is given as ≤ 0.1 ng/mL and the specific activity ([1]; corresponding to ED50) is given as ≥ 1×10^7 units/mg.

For “IGF-1: insulin-like growth factor-1, commercial preparation judged 98% pure by PAGE and HPLC”, the ED50 [2, 5] is listed as 2.0 ng/mL and the specific activity ([2]; corresponding to ED50) is listed as ≥ 5×10^5 units/mg.

For “TGFβ3: human transforming growth factor beta-3, commercial preparation judged 98% pure by PAGE and HPLC”, the “expected ED50” value [3, 5] is listed as 0.05 ng/mL and the specific activity ([3]; corresponding to ED50) is listed as ≥ 2×10^7 units/mg.

For “Human urinary EPO: isolated human urinary EPO, international reference standard for EPO assays”, the specific activity [4] is given as “about 70,000 U/mg”.
